{"source": "ChEMBL document CHEMBL4330076", "about": "“Quinazolin-2,4-dione-Based Hydroxamic Acids as Selective Histone Deacetylase-6 Inhibitors for Treatment of Non-Small Cell Lung Cancer” (J Med Chem, 2019)", "proteins": {"B1": {"name": "Protein deacetylase HDAC6 (Homo sapiens), Q9UBN7 (protein)", "chain": "MTSTGQDSTTTRQRRSRQNPQSPPQDSSVTSKRNIKKGAVPRSIPNLAEVKKKGKMKKLGQAMEEDLIVGLQGMDLNLEAEALAGTGLVLDEQLNEFHCLWDDSFPEGPERLHAIKEQLIQEGLLDRCVSFQARFAEKEELMLVHSLEYIDLMETTQYMNEGELRVLADTYDSVYLHPNSYSCACLASGSVLRLVDAVLGAEIRNGMAIIRPPGHHAQHSLMDGYCMFNHVAVAARYAQQKHRIRRVLIVDWDVHHGQGTQFTFDQDPSVLYFSIHRYEQGRFWPHLKASNWSTTGFGQGQGYTINVPWNQVGMRDADYIAAFLHVLLPVALEFQPQLVLVAAGFDALQGDPKGEMAATPAGFAQLTHLLMGLAGGKLILSLEGGYNLRALAEGVSASLHTLLGDPCPMLESPGAPCRSAQASVSCALEALEPFWEVLVRSTETVERDNMEEDNVEESEEEGPWEPPVLPILTWPVLQSRTGLVYDQNMMNHCNLWDSHHPEVPQRILRIMCRLEELGLAGRCLTLTPRPATEAELLTCHSAEYVGHLRATEKMKTRELHRESSNFDSIYICPSTFACAQLATGAACRLVEAVLSGEVLNGAAVVRPPGHHAEQDAACGFCFFNSVAVAARHAQTISGHALRILIVDWDVHHGNGTQHMFEDDPSVLYVSLHRYDHGTFFPMGDEGASSQIGRAAGTGFTVNVAWNGPRMGDADYLAAWHRLVLPIAYEFNPELVLVSAGFDAARGDPLGGCQVSPEGYAHLTHLLMGLASGRIILILEGGYNLTSISESMAACTRSLLGDPPPLLTLPRPPLSGALASITETIQVHRRYWRSLRVMKVEDREGPSSSKLVTKKAPQPAKPRLAERMTTREKKVLEAGMGKVTSASFGEESTPGQTNSETAVVALTQDQPSEAATGGATLAQTISEAAIGGAMLGQTTSEEAVGGATPDQTTSEETVGGAILDQTTSEDAVGGATLGQTTSEEAVGGATLAQTTSEAAMEGATLDQTTSEEAPGGTELIQTPLASSTDHQTPPTSPVQGTTPQISPSTLIGSLRTLELGSESQGASESQAPGEENLLGEAAGGQDMADSMLMQGSRGLTDQAIFYAVTPLPWCPHLVAVCPIPAAGLDVTQPCGDCGTIQENWVCLSCYQVYCGRYINGHMLQHHGNSGHPLVLSYIDLSAWCYYCQAYVHHQALLDVKNIAHQNKFGEDMPHPH"}}, "key": {"[1]": {"substrate": "O=C(NO)c1ccc(Cn2c(=O)n(CCc3ccccc3)c(=O)c3ccccc32)cc1", "settings": "Homo sapiens; Sf9", "description": "Competitive inhibition of human full-length recombinant HDAC6 expressed in baculovirus infected Sf9 insect cells assessed as substrate Km using Boc-Lys (Ac)-AMC as substrate preincubated for 10 mins followed by substrate addition and measured after 30 mins by fluorescence assay"}, "[2]": {"substrate": "CN1CCc2c(c3ccccc3n2Cc2ccc(C(=O)NO)cc2)C1", "settings": "Homo sapiens; Sf9", "description": "(§1) Inhibition of human full-length recombinant HDAC6 expressed in baculovirus infected Sf9 insect cells assessed as substrate Km using Boc-Lys (Ac)-AMC as substrate preincubated for 10 mins followed by substrate addition and measured after 30 mins by fluorescence assay"}, "[3]": {"substrate": "COc1ccccc1CCn1c(=O)c2ccccc2n(Cc2ccc(C(=O)NO)cc2)c1=O", "settings": "Homo sapiens; Sf9", "description": "as §1"}, "[4]": {"substrate": "O=C(NO)c1ccc(Cn2c(=O)n(CCc3ccccc3)c(=O)c3cccnc32)cc1", "settings": "Homo sapiens; Sf9", "description": "as §1"}, "[5]": {"substrate": "O=C(NO)c1ccc(Cn2c(=O)n(CCc3ccccc3)c(=O)c3ccccc32)cc1", "settings": "Homo sapiens", "description": "Competitive inhibition of human HDAC6 CD2 expressed in Escherichia coli BL21 (RIL) assessed as substrate Km using Boc-Lys (Ac)-AMC as substrate preincubated for 10 mins followed by substrate addition and measured after 30 mins by fluorescence assay"}, "[6]": {"substrate": "COc1ccccc1CCn1c(=O)c2ccccc2n(Cc2ccc(C(=O)NO)cc2)c1=O", "settings": "Homo sapiens", "description": "(§2) Inhibition of human HDAC6 CD2 expressed in Escherichia coli BL21 (RIL) assessed as substrate Km using Boc-Lys (Ac)-AMC as substrate preincubated for 10 mins followed by substrate addition and measured after 30 mins by fluorescence assay"}, "[7]": {"substrate": "O=C(NO)c1ccc(Cn2c(=O)n(CCc3ccccc3)c(=O)c3cccnc32)cc1", "settings": "Homo sapiens", "description": "as §2"}}, "data": [{"protein": "B1", "values": [{"measurement": "Km", "setting": "[1]", "result": 16.7, "unit": "µM"}, {"measurement": "Km", "setting": "[2]", "result": 29.1, "unit": "µM"}, {"measurement": "Km", "setting": "[3]", "result": 34.6, "unit": "µM"}, {"measurement": "Km", "setting": "[4]", "result": 21.8, "unit": "µM"}, {"measurement": "Km", "setting": "[5]", "result": 29.8, "unit": "µM"}, {"measurement": "Km", "setting": "[6]", "result": 32.5, "unit": "µM"}, {"measurement": "Km", "setting": "[7]", "result": 35.3, "unit": "µM"}]}]}
